Reference: publication doi:10.1101/2023.01.30.526200, “The virus-encoded ion channel “viroporin” activity of the agnoprotein is required for BK Polyomavirus release from infected kidney cells” (bioRxiv, 2023)
Values joined by “and” are separate entries in the source; they are usually repeats but may differ in a detail not shown here. Equal values may be shown once.

Target: the molecule itself
Experiment: SDS-PAGE (SDS-resistant oligomers); increasing concentrations of purified His-BKPyV agnoprotein on SDS PAGE, probed with anti-agnoprotein or anti-His antibody; oligomerisation concentration dependent

B1: recombinant 10xHis BKPyV agnoprotein (natural protein)
chain: MVLRQLSRQASVKVGKTWTGTKKRAQRIFIFILELLLEFCRGEDSVDGKNKSTTALPAVKDSVKDS
notes: agnoprotein of BK polyomavirus, DNA codon optimised for E. coli, amplified with primers from the ATG to the stop codon and cloned into pET19b (KpnI/BamHI); also called 10xHis BK agnoprotein; recombinant agnoprotein; source: E. coli DE3 gold, purified (NiNTA, HiTrap SP ion exchange, C4 solid phase extraction; dissolved in DMSO); not shown: His10, N-terminal, kept
With B1 the “stoichiometry N” value was 2 and 4 and 5.
